From patent US20160304613A1 (Genentech, published 2016) come the findings set out here.

Where a chain is given by its changes, count along the chain named. Some results are limits rather than exact numbers.

Test [1] deals with T1, human NRP1 (human, UniProt O14786 22-641).
T1 construct: range 1-641; Recombinant soluble protein; also called hNRP1; human neuropilin-1
Kind of test: SPR (BIAcore-3000), IgG immobilized, NRP1 injected, 25 C. On the procedure: (§1) Association rates (kₒₙ) and dissociation rates (koff) were calculated using a simple one-to-one Langmuir binding model (BIAcore Evaluation Software version 3.2). The equilibrium dissociation constant (Kd) was calculated as the ratio koff/kₒₙ.
(§2) (See Materials and Methods).

In test [2] the target is T2, murine NRP1 (murine, UniProt P97333 22-641).
T2 construct: range 1-641; Recombinant soluble protein; also called mNRP1; murine neuropilin-1
T2 sequence (P97333 22-641 limits assumed, form in doubt): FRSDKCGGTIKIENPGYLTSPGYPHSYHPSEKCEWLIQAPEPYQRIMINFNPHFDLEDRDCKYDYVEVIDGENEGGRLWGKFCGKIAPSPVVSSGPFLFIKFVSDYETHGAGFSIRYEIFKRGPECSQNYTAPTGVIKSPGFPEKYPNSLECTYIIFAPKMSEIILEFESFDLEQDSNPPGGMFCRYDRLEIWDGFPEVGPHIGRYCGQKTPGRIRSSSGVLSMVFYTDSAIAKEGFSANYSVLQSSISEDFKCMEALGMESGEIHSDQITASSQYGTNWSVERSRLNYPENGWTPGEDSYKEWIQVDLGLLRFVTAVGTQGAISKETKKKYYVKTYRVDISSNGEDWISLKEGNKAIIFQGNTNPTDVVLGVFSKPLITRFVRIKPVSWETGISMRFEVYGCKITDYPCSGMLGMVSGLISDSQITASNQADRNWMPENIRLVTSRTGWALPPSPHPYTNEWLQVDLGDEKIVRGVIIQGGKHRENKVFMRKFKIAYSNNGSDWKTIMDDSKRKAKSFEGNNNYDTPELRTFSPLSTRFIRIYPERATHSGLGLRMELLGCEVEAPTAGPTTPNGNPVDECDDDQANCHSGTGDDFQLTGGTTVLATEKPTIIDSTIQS
The test is described as above. On the procedure: as §1, §2

The target of test [3] is T1, human NRP1. The experiment in a line: competitive phage ELISA. (In general: ELISA stands for enzyme-linked immunosorbent assay.)
The target of test [4] is T2, murine NRP1. The experiment in a line: competitive phage ELISA.
Test [5] addresses T1, human NRP1. Kind of test: competitive phage ELISA, phage-displayed Fab'2, antigen in solution vs immobilized antigen.
Test [6] has as its target T2, murine NRP1. Described as above.
For test [7], the target named is T3, human NRP2 (human, UniProt O60462 23-864, limits assumed).
T3 construct: Coated on wells in ELISA and injected in SPR; construct not described; also called hNRP2
T3 sequence (O60462 23-864 limits assumed): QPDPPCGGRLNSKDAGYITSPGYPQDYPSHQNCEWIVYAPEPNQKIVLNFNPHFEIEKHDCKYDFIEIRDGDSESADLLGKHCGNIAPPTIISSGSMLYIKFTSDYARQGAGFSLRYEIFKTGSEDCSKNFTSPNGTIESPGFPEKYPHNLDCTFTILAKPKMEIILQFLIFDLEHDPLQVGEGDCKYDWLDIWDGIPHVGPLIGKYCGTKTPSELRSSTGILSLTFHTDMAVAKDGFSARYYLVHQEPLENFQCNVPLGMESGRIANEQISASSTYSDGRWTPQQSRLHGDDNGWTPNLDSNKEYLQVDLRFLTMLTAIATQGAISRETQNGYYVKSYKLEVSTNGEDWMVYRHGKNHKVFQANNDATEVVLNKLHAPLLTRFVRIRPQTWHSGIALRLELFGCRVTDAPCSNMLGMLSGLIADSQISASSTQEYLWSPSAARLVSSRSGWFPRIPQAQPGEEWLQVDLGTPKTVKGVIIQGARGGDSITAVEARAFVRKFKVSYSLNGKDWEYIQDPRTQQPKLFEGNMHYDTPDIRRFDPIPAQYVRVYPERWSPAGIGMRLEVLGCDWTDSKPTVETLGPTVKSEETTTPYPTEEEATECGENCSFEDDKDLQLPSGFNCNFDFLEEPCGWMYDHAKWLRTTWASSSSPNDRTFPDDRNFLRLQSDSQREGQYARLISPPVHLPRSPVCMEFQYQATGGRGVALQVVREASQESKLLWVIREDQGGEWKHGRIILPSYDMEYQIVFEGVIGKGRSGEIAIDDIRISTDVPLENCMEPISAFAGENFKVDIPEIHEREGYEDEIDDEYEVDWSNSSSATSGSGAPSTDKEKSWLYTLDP
The experiment in a line: ELISA, antigen-coated wells (2 µg/ml), IgG at 10 µg/ml, detected with anti-human IgG HRP, OD450nm.

In test [8] the target is T4, murine NRP2 (murine, UniProt O35375 23-864, limits assumed).
T4 construct: Coated on wells in ELISA and injected in SPR; construct not described; In the Sema3F collapse assay it is the endogenous NRP2 of mouse E17 hippocampal neurons; also called mNRP2
T4 sequence (O35375 23-864 limits assumed): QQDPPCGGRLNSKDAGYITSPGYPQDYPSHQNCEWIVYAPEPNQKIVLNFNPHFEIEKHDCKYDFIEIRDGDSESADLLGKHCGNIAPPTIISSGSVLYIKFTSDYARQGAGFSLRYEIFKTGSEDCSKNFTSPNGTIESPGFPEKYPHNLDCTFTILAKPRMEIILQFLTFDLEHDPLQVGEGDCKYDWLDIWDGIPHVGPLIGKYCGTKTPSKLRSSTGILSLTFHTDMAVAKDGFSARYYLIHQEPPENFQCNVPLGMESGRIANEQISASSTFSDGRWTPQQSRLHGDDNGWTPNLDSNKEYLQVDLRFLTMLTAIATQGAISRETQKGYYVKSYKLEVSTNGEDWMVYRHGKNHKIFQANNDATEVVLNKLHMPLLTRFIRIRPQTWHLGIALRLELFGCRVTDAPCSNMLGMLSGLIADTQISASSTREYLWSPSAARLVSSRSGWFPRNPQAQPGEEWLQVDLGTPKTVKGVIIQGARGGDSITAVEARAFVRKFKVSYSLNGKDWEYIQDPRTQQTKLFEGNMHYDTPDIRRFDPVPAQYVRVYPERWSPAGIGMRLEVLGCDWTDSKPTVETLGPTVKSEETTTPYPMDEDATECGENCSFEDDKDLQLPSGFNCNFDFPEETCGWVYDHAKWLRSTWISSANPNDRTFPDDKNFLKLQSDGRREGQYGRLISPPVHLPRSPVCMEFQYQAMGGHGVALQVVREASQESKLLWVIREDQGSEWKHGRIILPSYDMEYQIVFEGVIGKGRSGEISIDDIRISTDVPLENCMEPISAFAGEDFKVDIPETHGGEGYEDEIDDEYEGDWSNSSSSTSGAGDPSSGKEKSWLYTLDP
The test is described as above.

The target of another test is T5, ErbB2-ECD (UniProt P04626 23-652, limits assumed).
T5 construct: extracellular domain; Specificity control antigen
Described as above.

For another test, the target named is T6, BSA (UniProt P02769 25-607).
T6 construct: Specificity control antigen
T6 sequence (P02769 25-607 limits assumed): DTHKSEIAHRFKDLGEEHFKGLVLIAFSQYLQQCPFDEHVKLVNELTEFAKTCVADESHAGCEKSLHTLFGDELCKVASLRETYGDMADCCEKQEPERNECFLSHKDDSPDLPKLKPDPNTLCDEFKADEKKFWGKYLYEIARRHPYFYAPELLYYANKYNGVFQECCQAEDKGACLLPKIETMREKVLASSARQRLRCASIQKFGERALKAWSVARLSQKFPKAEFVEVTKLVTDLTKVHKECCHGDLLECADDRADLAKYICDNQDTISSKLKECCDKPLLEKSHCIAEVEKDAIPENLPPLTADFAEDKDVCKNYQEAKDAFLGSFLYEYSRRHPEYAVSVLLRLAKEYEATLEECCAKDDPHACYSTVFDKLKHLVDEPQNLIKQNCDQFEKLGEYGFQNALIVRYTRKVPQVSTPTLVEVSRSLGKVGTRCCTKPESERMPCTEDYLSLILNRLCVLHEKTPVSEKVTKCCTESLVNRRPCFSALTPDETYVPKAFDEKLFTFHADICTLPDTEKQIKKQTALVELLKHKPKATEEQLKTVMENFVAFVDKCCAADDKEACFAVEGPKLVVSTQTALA
The description is as above.

In test [9] the target is T3, human NRP2. Kind of test: BIAcore SPR, IgG immobilized on the chip, antigen injected at 500 nM (printed '500nm'). How it is done: as §1
The target of test [10] is T4, murine NRP2. The description is as above. On the procedure: as §1

As usually defined, the koff is the first-order rate constant of dissociation. Read a high koff as fast dissociation. In general, kon refers to the second-order rate constant of association. As to YW107.4 (antibody), in the test with human NRP1 [1], the koff stood at 0.0011 s⁻¹ and the kon stood at 220000 M⁻¹ s⁻¹. In the test with murine NRP1 [2], the koff worked out at 0.0015 s⁻¹ and the on-rate constant (kon) amounted to 140000 M⁻¹ s⁻¹.

B1: YW64.3 (antibody, human IgG1, V domains shown)
VH: EVQLVESGGGLVQPGGSLRLSCAASGFSFSSEPISWVRQAPGKGLEWVSSITGKNGYTYYADSVKGRFTISADTSKNTAYLQMNSLRAEDTAVYYCARWGKKVYGMDVWGQGTLVTVSS
VL: DIQMTQSPSSLSASVGDRVTITCRASQSISSYLAWYQQKPGKAPKLLIYGASSRASGVPSRFSGSGSGTDFTLTISSLQPEDFATYYCQQYMSVPITFGQGTKVEIKR
notes: full length human IgG1 (CHO) in ELISA, SPR and FACS; also called anti-NRP1^A; anti-NRP^A
A word on the IC50: it is the midpoint of a concentration-inhibition curve. High values mean lower potency, low ones higher potency. For orientation: Kd means the concentration at which binding is half-saturated. Turning to B1, the half-inhibitory concentration (IC50) in the test with human NRP1 [3] was < 70 nM; with murine NRP1 [4], < 70 nM; with human NRP1 [5], 0.48 nM; with murine NRP1 [6], 3.4 nM. For the same molecule, the Kd with human NRP1 [1] stood at 0.9 nM; with murine NRP1 [2], 7.8 nM. Besides, the koff in the test with human NRP1 [1] is 0.00012 s⁻¹; with murine NRP1 [2] it was 0.00045 s⁻¹. Moreover, the kon with human NRP1 [1] worked out at 130000 M⁻¹ s⁻¹; in the test with murine NRP1 [2] it was 60000 M⁻¹ s⁻¹. Besides, the binding result with human NRP2 [7], with murine NRP2 [8], with ErbB2-ECD and with BSA was “no binding (tested: 10 µg/ml)” in each case.

B2: YW107.4.87 (antibody, V domains shown)
VH: EVQLVESGGGLVQPGGSLRLSCAASGFTFSSYAMSWVRQAPGKGLEWVSQISPAGGYTNYADSVKGRFTISADTSKNTAYLQMNSLRAEDTAVYYCARELPYYRMSKVMDVWGQGTLVTVSS
VL: B1 VL with S28Y, I29F, M92L, S93G, V94S, I96P
notes: Monovalent Fab on phage in the phage ELISA; also called anti-NRP1^B; anti-NRP^B
As to B2, the binding result with human NRP2 [9] and in the test with murine NRP2 [10] was “no binding (tested: 500 nM)” throughout.
